From US20170173132A1 (IMMATICS BIOTECHNOLOGIES, published 2017)
Each block holds one binder with its values, some of them ahead of it. Square brackets hold non-standard residues; d marks the D form. Ends that are not written are not given here. pT = C[C@@H](OP(=O)(O)O)[C@H](N)C(=O)O

Biological target: T1, HLA-A*02:01 (peptide-receptive MHC class I molecule, heavy chain with β2m light chain) (human)
T1 construct: The UV-sensitive placeholder peptide is cleaved on irradiation and exchanged for the tested peptide
Experiment: UV-ligand exchange, anti-β2m ELISA; grade of peptide exchange yield (≥10% = +; ≥20% = ++; ≥50 = +++; ≥75% = ++++)
Description: Candidate peptides for T cell based therapies according to the present invention were further tested for their MHC binding capacity (affinity). The individual peptide-MHC complexes were produced by UV-ligand exchange, where a UV-sensitive peptide is cleaved upon UV-irradiation, and exchanged with the peptide of interest as analyzed. Only peptide candidates that can effectively bind and stabilize the peptide-receptive MHC molecules prevent dissociation of the MHC complexes. To determine the yield of the exchange reaction, an ELISA was performed based on the detection of the light chain (β2m) of stabilized MHC complexes. The assay was performed as generally described in Rodenko et al. (Rodenko et al., 2006).
96 well MAXISorp plates (NUNC) were coated over night with 2 ug/ml streptavidin in PBS at room temperature, washed 4× and blocked for 1 h at 37° C. in 2% BSA containing blocking buffer. Refolded HLA-A*02:01/MLA-001 monomers served as standards, covering the range of 15-500 ng/ml. Peptide-MHC monomers of the UV-exchange reaction were diluted 100-fold in blocking buffer. Samples were incubated for 1 h at 37° C., washed four times, incubated with 2 ug/ml HRP conjugated anti-β2m for 1 h at 37° C., washed again and detected with TMB solution that is stopped with […]. Absorption was measured at 450 nm. Candidate peptides that show a high exchange yield (preferably higher than 50%, most preferred higher than 75%) are generally preferred for a generation and production of antibodies or fragments thereof, and/or T cell receptors or fragments thereof, as they show sufficient avidity to the MHC molecules and prevent dissociation of the MHC complexes.

Binder: ALEA[pT]QLYL [peptide ALEAUQLYL]
peptide exchange yield: 50 to 75%

Binder: ALTALQNYL [peptide ALTALQNYL]
peptide exchange yield: 50 to 75%

Binder: ALEEQLHQV [peptide ALEEQLHQV]
peptide exchange yield: 20 to 50%

Binder: FLVEHVLTL [peptide FLVEHVLTL]
peptide exchange yield: ≥ 75%

Binder: ALNPVIYTV [peptide ALNPVIYTV]
peptide exchange yield: 20 to 50%

Binder: GLHSLPPEV [peptide GLHSLPPEV]
peptide exchange yield: 50 to 75%

Binder: GLSYIYNTV [peptide GLSYIYNTV]
peptide exchange yield: 20 to 50%

Binder: FLDEEVKLI [peptide FLDEEVKLI]
peptide exchange yield: 50 to 75%

Binder: GLVQSLTSI [peptide GLVQSLTSI]
peptide exchange yield: ≥ 75%

Binder: KAFPFYNTV [peptide KAFPFYNTV]
peptide exchange yield: 20 to 50%

Binder: FMSKLVPAI [peptide FMSKLVPAI]
peptide exchange yield: 50 to 75%

Binder: GLLPTSVSPRV [peptide GLLPTSVSPRV]
peptide exchange yield: 20 to 50%

Binder: FSFPVSVGV [peptide FSFPVSVGV]
peptide exchange yield: 50 to 75%

Binder: FLSSEAANV [peptide FLSSEAANV]
peptide exchange yield: 20 to 50%

Binder: FIIPTVATA [peptide FIIPTVATA]
peptide exchange yield: ≥ 75%

Binder: ILTELPPGV [peptide ILTELPPGV]
peptide exchange yield: 20 to 50%

Binder: GLLGFQAEA [peptide GLLGFQAEA]
peptide exchange yield: ≥ 75%

Binder: ILFDVVVFL [peptide ILFDVVVFL]
peptide exchange yield: 20 to 50%

Binder: GLVATLQSL [peptide GLVATLQSL]
peptide exchange yield: 50 to 75%

Binder: ALAGSSPQV [peptide ALAGSSPQV]
peptide exchange yield: 50 to 75%

Other lines, results leading:

peptide exchange yield: ≥ 75%
Binder: SLFSVPFFL [peptide SLFSVPFFL]

peptide exchange yield: 50 to 75%
Binder: YILLQSPQL [peptide YILLQSPQL]

peptide exchange yield: 50 to 75%
Binder: SLAWDVPAA [peptide SLAWDVPAA]

peptide exchange yield: ≥ 75%
Binder: LLM[pT]VAGLKL [peptide LLMUVAGLKL]

peptide exchange yield: 50 to 75%
Binder: SLFPSLVVV [peptide SLFPSLVVV]

peptide exchange yield: 50 to 75%
Binder: SLLTEPALV [peptide SLLTEPALV]

peptide exchange yield: 50 to 75%
Binder: YIDGLESRV [peptide YIDGLESRV]

peptide exchange yield: 50 to 75%
Binder: SLNDQGYLL [peptide SLNDQGYLL]

peptide exchange yield: ≥ 75%
Binder: TLLGLAVNV [peptide TLLGLAVNV]

peptide exchange yield: 50 to 75%
Binder: SLADAVEKV [peptide SLADAVEKV]

peptide exchange yield: 50 to 75%
Binder: SLAEPRVSV [peptide SLAEPRVSV]

peptide exchange yield: 50 to 75%
Binder: KQLELELEV [peptide KQLELELEV]

peptide exchange yield: ≥ 75%
Binder: SLLSEIQAL [peptide SLLSEIQAL]

peptide exchange yield: ≥ 75%
Binder: SMMGLLTNL [peptide SMMGLLTNL]

peptide exchange yield: ≥ 75%
Binder: KLLDMELEM [peptide KLLDMELEM]

peptide exchange yield: 20 to 50%
Binder: KLYEGIPVL [peptide KLYEGIPVL]

peptide exchange yield: 20 to 50%
Binder: SLVEGEAVHLA [peptide SLVEGEAVHLA]

peptide exchange yield: 50 to 75%
Binder: KMPEHISTV [peptide KMPEHISTV]

peptide exchange yield: 20 to 50%
Binder: TIASSIEKA [peptide TIASSIEKA]
